Data as given in patent publication US20250325651A1.

Columns and labels:
Assay in all cases: sandwich ELISA (coated antibody, conditioned medium, anti-His detection), OD450 grade
[1] = molecular target: hMPV024 hMPV F-CompA fusion protein (human metapneumovirus (strain A))
[2] = molecular target: hMPV005 hMPV F-CompA fusion protein (human metapneumovirus (strain A))
[3] = molecular target: hMPV033 hMPV F-CompA fusion protein (human metapneumovirus (strain A))
[4] = molecular target: hMPV027 hMPV F-CompA fusion protein (not cleaved by furin) (human metapneumovirus (strain A))
[5] = molecular target: hMPV026 hMPV F-CompA fusion protein (not cleaved by furin) (human metapneumovirus (strain A))
[6] = molecular target: hMPV021 hMPV F-CompA fusion protein (human metapneumovirus (strain B))
[7] = molecular target: hMPV027C, furin-cleaved form of hMPV027 hMPV F-CompA fusion protein (human metapneumovirus (strain A))
[8] = molecular target: hMPV008 hMPV F-CompA fusion protein (human metapneumovirus (strain B))

Measured: OD450

MPE8 (antibody)
1 to 2 od: all assays above
